Test results published in publication PMC8855868.

Molecular target: MeCP2 (human, UniProt P51608 1-486)
Assay: MST

Chain of MeCP2 (P51608 whole entry): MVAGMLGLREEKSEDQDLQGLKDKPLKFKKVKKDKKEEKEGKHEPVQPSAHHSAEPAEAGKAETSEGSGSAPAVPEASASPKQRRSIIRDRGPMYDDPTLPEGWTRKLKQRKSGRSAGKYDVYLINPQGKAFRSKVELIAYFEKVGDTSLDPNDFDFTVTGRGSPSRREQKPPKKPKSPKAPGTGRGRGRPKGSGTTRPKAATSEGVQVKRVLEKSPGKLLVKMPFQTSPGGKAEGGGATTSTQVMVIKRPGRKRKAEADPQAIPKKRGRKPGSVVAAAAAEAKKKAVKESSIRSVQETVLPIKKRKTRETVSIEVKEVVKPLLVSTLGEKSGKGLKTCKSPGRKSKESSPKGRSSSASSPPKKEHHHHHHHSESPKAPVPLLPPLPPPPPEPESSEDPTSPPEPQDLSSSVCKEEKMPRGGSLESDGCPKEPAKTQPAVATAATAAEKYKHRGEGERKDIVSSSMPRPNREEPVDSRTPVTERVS

B1: 20 bp mC (dsDNA)
DNA 1: ACTACCATCCGGACCAGAAG
DNA 2: CTTCTGGTCCGGATGGTAGT
modifications: 5mC at position 10 of strand 1 and position 10 of strand 2 (printed as X)
B1: binds.
